In patent US20180258175A1 (ABLEXIS, published 2018):

B1: CCL-311A (antibody, V domains shown)
VH: EVQLVQSGAEVKKPGESLKISCKGSGYSFTNYWIGWVRQMPGKGLEWMGIIYPGDSDTRYSPSFQGQVTISADISITTAYLQWSSLKASDTAMYYCARHRLGFFDYWGQGTLVTVSS
VL: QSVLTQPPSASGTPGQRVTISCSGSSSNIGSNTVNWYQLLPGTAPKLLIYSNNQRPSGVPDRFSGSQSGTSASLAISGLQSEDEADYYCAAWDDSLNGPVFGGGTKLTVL
notes: AlivaMab chimeric IgG, human lambda LC
B2: CCL-314A (antibody, V domains shown)
VH: QVQLQESGPGLVKPSETLSLTCTVSGGSISSYYWSWIRQPAGKGLEWIGRIYASGGTNYNPSLKSRVTMSVDTSKNQFSLKVSSVIAADTAIYYCARNRLGIYDYWGQGSLVTVSS
VL: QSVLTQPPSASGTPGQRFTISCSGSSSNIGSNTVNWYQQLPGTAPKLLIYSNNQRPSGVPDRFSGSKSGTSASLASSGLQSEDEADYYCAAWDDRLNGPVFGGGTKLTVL
notes: as for B1
B3: CCL-315A (antibody, V domains shown)
VH: QVQLQESGPGLVKPSETLSLTCTVSGGSISSYYWSWIRQSPGKGLEWIGYIYYSGSTNYNPSLKSRVTISVDTSKNQFSLKLSSVTAADTAVYFCARALLTGGFAYWGQGTLVTVSS
VL: not shown
notes: as for B1
B4: CCL-324A (antibody, V domains shown)
VH: QVQLQESGPGLVKPSETLSLTCTVSGGSISSYYWSWIRQPPGKGLEWIGYVYYSGSTNYNPSLKSRVTTSVDTSKNQFSLKLRSVTAADTAVYYCARDRLGIAFDIWGQGTMVTVSS
VL: SSELTQDPAVSVALGQTVRITCQGDSLRSYYASWYQQKPGQAPILVIYGKNNRPSGIPDRFSGSSSGNTASLTITGAQAEDEADYYCNSQDNSGNHLVVFGRGTKLTVL
notes: as for B1
B5: CCL-333A (antibody, V domains shown)
VH: EVQLVESGGGLVKPGGSLRLSCAASGFTFSYYSMNWVRQAPGKGLEWVSSISDSSDYIYYADSVKGRFTISRDNAKNSLYLQMNSLRAEDTAVYYCARGGLRFDYWGQGTLVTVSS
VL: not shown
notes: as for B1
B6: CCL-338A (antibody, V domains shown)
VH: QVQLQESGPGLVKPSETLSLTCTVSGGSISSYYWSWIRQPPGKGLEWIGYIYYSGTTNYNPSLKSRVTISVDTSKNQFSLKLSSVTAADTAVYYCARALIVGAFAYWGQGTLVTVSS
VL: SYELTQPHSVSVATAQMARITCGGNNIGSKAVHWYQQKPGQDPVLVIYSDSNRPSGIPERFSGSNPGNTATLTISRIEAGDEADYYCQVWDSSSDHRVFGGGTKLTVL
notes: as for B1
B7: CCL-349A (antibody, V domains shown)
VH: QVQLQESGPGLVKPSETLSLTCTVSGGSISIYYWNWIRQPPGKGLEWIGYIYYIGSTNYNPSLKSRVTISVDTSKNQFSLKLSSVTAADTAVYYCARGRLTYAFDIWGQGTMVTVSS
VL: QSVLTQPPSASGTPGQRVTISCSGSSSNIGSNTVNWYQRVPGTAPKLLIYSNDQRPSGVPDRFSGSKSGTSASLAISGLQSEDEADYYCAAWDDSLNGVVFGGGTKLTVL
notes: as for B1
B8: CCK-410A (antibody, V domains shown)
VH: EVQLVESGGGLVQPGRSLRLSCTASGFTFGDYAMSWFRQAPGKGLEWVGFIRSKAYGGTTEYAASVKGRFTISRDDTKSIAYLQMNSLKIEDTAVHYCTREGSFGALDIWGQGIMVTVSS
VL: not shown
notes: AlivaMab chimeric IgG, human kappa LC
B9: CCK-408A (antibody, V domains shown)
VH: QVQLQESGPGLVKPSETLSLTCTVSGGSISSYYWSWIRQPAGKGLEWIGRIYTSGSTNYHPSFKSRVTMSVDTSKTQFSLKLSSLTAADTAVYYCARGGITWFDPWGQGTLVTVSS
VL: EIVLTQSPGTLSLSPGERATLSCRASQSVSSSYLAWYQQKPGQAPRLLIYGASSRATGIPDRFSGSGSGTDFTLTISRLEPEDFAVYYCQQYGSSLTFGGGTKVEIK
notes: as for B8
B10: CCK-434A (antibody, V domains shown)
VH: EVQLVESGGGLVQPGGSLRLSCAASGFTFSSYDMHWVRQATGKGLEWVSAIGTAGDTYYPGSVKGRFTISRENAKNSLYLQMNSLRAGDTAVYYCARGHIVVVTAMDYWGQGTLVTVSS
VL: not shown
notes: as for B8
B11: CCK-501A (antibody, V domains shown)
VH: EVQLVESGGGLVKPGGSLRLSCAASGFTFSNAWMNWVRQAPGKGLEWVGRINSKTDGGTTDYAAPVKGRFTISRDDSKTTLYLQMNSLKTEDTAVYYCTTDGVYPDVFDIWGQGTMVTVSS
VL: not shown
notes: as for B8
B12: CCL-201A (antibody, V domains shown)
VH: QVQLQESGPGLVKPSETLSLTCTVSGGSISSYYWIWIRQPPGKGLEWIGYFYYSGSTNYNPSLKSRVTISVGTSKNQFSLKLSSVTAADTAVYYCARSRLGSIFDYWGQGTLVTVSS
VL: not shown
notes: as for B1
B13: CCL-203A (antibody, V domains shown)
VH: QVQLQESGPGLVKPSETLSLTCTVSGGSISSYYWNWIRQPPGKGLEWIGYIYYSGSTNYNPSLKSRVTISLDTSKNQFSLKLSSVTAADTAVYHCARGRLNGAFDYWGQGTLVTVSS
VL: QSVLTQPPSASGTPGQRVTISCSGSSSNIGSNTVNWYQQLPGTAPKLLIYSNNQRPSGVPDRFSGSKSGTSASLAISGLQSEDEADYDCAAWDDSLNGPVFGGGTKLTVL
notes: as for B1
B14: CCL-208A (antibody, V domains shown)
VH: QVQLVQSGAEVKKPGASVKVSCKASGYTFTDYYMHWVRQAPGQGLEWMGWINPNSGGANYAQKFQGRVTMTRDTSISIAYMELSRLRSDDTAIYYCARGRLTFFDYWGQGTLVTVSS
VL: not shown
notes: as for B1
B15: CCL-209A (antibody, V domains shown)
VH: QVQLQESGPGLVKPSETLSLTCTVSGGSISSFYWSWIRQSPGRGLEWIGYIFYSGSTKYNPSLMSRVTISADTSKNQFSLKLSSVTAADTAVYYCARGRLGNYFDYWGQGTLVTVSS
VL: not shown
notes: as for B1
B16: CCL-331A (antibody, V domains shown)
VH: QVQLQESGPGLVKPSETLSLTCTVSGGSISSYYWSWIRQPAGKGLEWIGRIYTSGSTNYNPSLKSRVTMSVDTSKNQFSLKLSSVTAADTAVYYCAREGLRGFDPWGQGTLVTVSS
VL: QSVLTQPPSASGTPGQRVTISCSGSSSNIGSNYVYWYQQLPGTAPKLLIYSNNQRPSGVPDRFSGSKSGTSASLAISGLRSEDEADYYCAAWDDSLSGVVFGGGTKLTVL
notes: as for B1
B17: CCL-206A (antibody, V domains shown)
VH: QVQLQESGPGLVKPSETLSLTCTVSGGSISSYYWTWIRQPPGKGLEWIGYIYYSGITNYNPSLKSRVTMSMDTSKNQFSLRLSSVTAADTAVYYCARGRIIGAFDIWGQGTMVTVSS
VL: not shown
notes: as for B1
B18: CCL-249A (antibody, V domains shown)
VH: QVQLQESGPGLVKPSETLSLTCTVSGGSISSYYWSWIRQPAGKGLEWVGRLFTSGSTNYNPSLKSRVTMSVDTSKNQFSLKLSSVIAADTAVYYCARERLTGYFDYWGQGTLVTVSS
VL: not shown
notes: as for B1
B19: CCL-327A (antibody, V domains shown)
VH: QVQLQESGPGLVKPSETLSLTCSVSGGSISSYHWSWIRQPAGKGLEWIGRIYTGGSTNYNPSLKSRVTMSVDTSKNQFSLKLSSVTAADTAVYYCARERLTGYFDYWGQGTLVTVSS
VL: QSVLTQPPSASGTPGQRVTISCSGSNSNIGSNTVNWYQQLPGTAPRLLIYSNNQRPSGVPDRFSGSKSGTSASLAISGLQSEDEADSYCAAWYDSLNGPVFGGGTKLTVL
notes: as for B1
B20: CCL-329A (antibody, V domains shown)
VH: QVQPQESGPGLVKPSETLSLTCTVSGGSISGYYWSWIRQPAGTGLEWIGRIYTSGSTNYNSSLKSRVTMSVDTSKNQFSLKLSSVTAADTAVYYCARERMATIFDYWGQGTLVTVSS
VL: not shown
notes: as for B1
B21: CCL-310A (antibody, V domains shown)
VH: EVQLVESGGGLVQPGGSLRLSCAASGFTFSNYWMRWVRQAPGKGLEWVANIKQDGSEKYYVDSVKGRFTISRDNAKYSLYLQMNSLRAEDTAVYYCARDRLGIFDYWGQGTLVTVSS
VL: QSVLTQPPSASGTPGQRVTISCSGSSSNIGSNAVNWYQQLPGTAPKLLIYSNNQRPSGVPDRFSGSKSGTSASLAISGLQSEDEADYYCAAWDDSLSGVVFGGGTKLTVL
B22: CCL-215A (antibody, V domains shown)
VH: EVQLVESGGGLVQPGGSLRLSCAASGFTFSSYSMNWVRQAPGKGLEWVSYISSSSSTIYYADSVKGRFTISSDNAKNSLYLQMDSLRDEDTAVYYCARDRLGIPFDYWGQGTLVTVSS
VL: not shown
notes: as for B1
B23: CCL-225A (antibody, V domains shown)
VH: EVQLVESGGGLVKPGGSLRLSCAASGFTFSSYNMNWVRQAPGKGLEWVSSISSSSNYIYYADSVKGRFTISGDTAKNSLFLQMISLRVEDTAVYYCARDRLGIPFDYWGQGSLVTVSS
VL: not shown
notes: as for B1
B24: CCL-340A (antibody, V domains shown)
VH: EVQLVESGGGLVKPGGSLRLSCAASGFTFSSYSMKWVRQAPVKGLEWVSSISSSSSYIYYGDSVKGRFTISRDNAKNSLYLQMNSLRAEDTAVYYCARERLGRAFDIWGQGTMVTVSS
VL: not shown
notes: as for B1
B25: CCL-231A (antibody, V domains shown)
VH: QVQLQESGPGLVKPSETLSLTCTVSGGSISSYYWSWIRQPAGKGLEWIGRIYTSGNTNYNPSLKSRVTMSLDTSKNQFSLKLSSVTAADTAVYYCARVGAIGVDAFDIWGQGTMVTVSS
VL: QSALTQPASVSGSPGQSITISCTGTSSDVGSYNLVSWYQQHPGKAPKLMIYEGSKRPSGVSNRFSGSKSGNTASLTISGLQAEDEADYYCCSYAGSSTFVVFGGGTKLTVL
notes: as for B1
B26: CCL-217A (antibody, V domains shown)
VH: QVQLQESGPGLVKPSETLSLTCTVSGGSISSYYWSWIRQPAGKGLEWIGRIYSSGTTNYNPSLKSRVTMSVETSKNQFSLNLSSVTAADTAVYYCARERITGHFDYWGQGTLVTVSS
VL: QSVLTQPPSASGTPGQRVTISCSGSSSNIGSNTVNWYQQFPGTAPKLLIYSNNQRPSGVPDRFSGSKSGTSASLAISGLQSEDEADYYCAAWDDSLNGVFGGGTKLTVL
notes: as for B1
B27: CCL-313A (antibody, V domains shown)
VH: QVQLQESGPGLVKPSETLSLTCTVSGGSISSYYWSWIRQPPGKGLEWIGYIYYTGSTNYNPSLKSRVTISVDTSKNQFSLKLSSVTAADTAVYYCARGWWELTFFDYWGQGTLVTVSS
VL: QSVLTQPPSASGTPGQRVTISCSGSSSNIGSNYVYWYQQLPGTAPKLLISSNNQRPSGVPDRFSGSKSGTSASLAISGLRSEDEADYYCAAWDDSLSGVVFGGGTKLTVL
notes: as for B1

The binders below were run against T1, human CD115 extracellular domain (Sino Biological 10161-H08H) (human, UniProt P07333 20-517) (assay: ELISA, supernatant on huCD115).
T1 construct: extracellular domain; bought recombinant protein; also called huCD115; hu-CD115

B1: binds.
B2: binds.
B3: binds.
B4: binds.
B5: binds.
B6: binds.
B7: binds.
B8: binds.
B9: binds.
B10: binds.
B11: binds.
B12: binds.
B13: binds.
B14: binds.
B15: binds.

What follows are binders tested against T1, human CD115 extracellular domain (Sino …) (assay: SPR ProteOn, supernatant mAb captured on anti-mouse IgG, Hu CD115 analyte).

In order of rising Kd:
1. B20  38 pM
2. B21  79 pM
3. B16  118 pM
4. B22  215 pM
5. B23  277 pM
6. B24  367 pM
7. B17  495 pM
8. B25  578 pM
9. B18  599 pM
10. B26  1220 pM
11. B27  1240 pM
12. B19  1410 pM

In order of rising koff:
1. B21  4.35e-06 s⁻¹
2. B20  4.46e-06 s⁻¹
3. B23  1.38e-05 s⁻¹
4. B22  1.83e-05 s⁻¹
5. B16  2.2e-05 s⁻¹
6. B24  2.72e-05 s⁻¹
7. B17  2.92e-05 s⁻¹
8. B25  4.71e-05 s⁻¹
9. B18  8.91e-05 s⁻¹
10. B27  9.09e-05 s⁻¹
11. B26  0.00012 s⁻¹
12. B19  0.000189 s⁻¹

In order of falling kon:
1. B16  186000 M⁻¹ s⁻¹
2. B18  149000 M⁻¹ s⁻¹
3. B19  133000 M⁻¹ s⁻¹
4. B20  118000 M⁻¹ s⁻¹
5. B26  98100 M⁻¹ s⁻¹
6. B22  85300 M⁻¹ s⁻¹
7. B25  81000 M⁻¹ s⁻¹
8. B24  74100 M⁻¹ s⁻¹
9. B27  73600 M⁻¹ s⁻¹
10. B17  59000 M⁻¹ s⁻¹
11. B21  50600 M⁻¹ s⁻¹
12. B23  50000 M⁻¹ s⁻¹
